In patent US10239937:
Each block holds one substance with its values, some of them ahead of it.

Experiments:
[1] = molecular target: C3 fragments (iC3b, C3dg and C3d) of human complement component C3, deposited on cells or tissue (human) (UniProt P01024); assay: flow cytometry, rabbit RBCs + human serum, no TT30, panel A12-2-0
[2] = molecular target: C3 fragments (iC3b, C3dg and C3d) of human complement component C3, deposited on cells or tissue (human) (UniProt P01024); assay: flow cytometry, rabbit RBCs + human serum + TT30 0.06 µM, time 0, panel A11-2-0 [Time: 0]
[3] = molecular target: C3 fragments (iC3b, C3dg and C3d) of human complement component C3, deposited on cells or tissue (human) (UniProt P01024); assay: flow cytometry, rabbit RBCs + human serum + TT30 0.46 µM, 4 hr, panel A8-4-2 [Time: 4 hr]
[4] = molecular target: C3 fragments (iC3b, C3dg and C3d) of human complement component C3, deposited on cells or tissue (human) (UniProt P01024); assay: flow cytometry, rabbit RBCs + human serum + TT30 0.46 µM, 24 hr, panel A8-24-3 [Time: 24 hr]
[5] = molecular target: C3 fragments (iC3b, C3dg and C3d) of human complement component C3, deposited on cells or tissue (human) (UniProt P01024); assay: flow cytometry, rabbit RBCs + human serum + TT30 1.4 µM, time 0, panel A5-3-0 [Time: 0]
[6] = molecular target: C3 fragments (iC3b, C3dg and C3d) of human complement component C3, deposited on cells or tissue (human) (UniProt P01024); assay: flow cytometry, rabbit RBCs + human serum + TT30 1.4 µM, time 0, panel A5-2-0 [Time: 0]
[7] = molecular target: C3 fragments (iC3b, C3dg and C3d) of human complement component C3, deposited on cells or tissue (human) (UniProt P01024); assay: flow cytometry, rabbit RBCs + human serum + TT30 0.46 µM, 2 hr, panel A8-2-3 [Time: 2 hr]
[8] = molecular target: C3 fragments (iC3b, C3dg and C3d) of human complement component C3, deposited on cells or tissue (human) (UniProt P01024); assay: flow cytometry, rabbit RBCs + human serum + TT30 3.7 µM, time 0, panel A2-3-0; filing: no C3 fragments or TT30 on the cells at this concentration [Time: 0]
[9] = molecular target: C3 fragments (iC3b, C3dg and C3d) of human complement component C3, deposited on cells or tissue (human) (UniProt P01024); assay: flow cytometry, rabbit RBCs + human serum + TT30 0.46 µM, 4 hr, panel A8-4-3 [Time: 4 hr]
[10] = molecular target: C3 fragments (iC3b, C3dg and C3d) of human complement component C3, deposited on cells or tissue (human) (UniProt P01024); assay: flow cytometry, rabbit RBCs + human serum + TT30 0.46 µM, 2 hr, panel A8-2-2 [Time: 2 hr]
[11] = molecular target: C3 fragments (iC3b, C3dg and C3d) of human complement component C3, deposited on cells or tissue (human) (UniProt P01024); assay: flow cytometry, rabbit RBCs + human serum + TT30 3.7 µM, time 0, panel A2-2-0; filing: no C3 fragments or TT30 on the cells at this concentration [Time: 0]
[12] = molecular target: C3 fragments (iC3b, C3dg and C3d) of human complement component C3, deposited on cells or tissue (human) (UniProt P01024); assay: flow cytometry, rabbit RBCs + human serum + TT30 0.46 µM, 24 hr, panel A8-24-2 [Time: 24 hr]
[13] = molecular target: C3 fragments (iC3b, C3dg and C3d) of human complement component C3, deposited on cells or tissue (human) (UniProt P01024); assay: flow cytometry, rabbit RBCs + human serum, no TT30, panel A12-3-0
[14] = molecular target: C3 fragments (iC3b, C3dg and C3d) of human complement component C3, deposited on cells or tissue (human) (UniProt P01024); assay: flow cytometry, rabbit RBCs + human serum + TT30 0.06 µM, time 0, panel A11-3-0 [Time: 0]
[15] = molecular target: C3 fragments (iC3b, C3dg and C3d) of human complement component C3, deposited on cells or tissue (human) (UniProt P01024); assay: flow cytometry, rabbit RBCs + human serum + TT30 0.46 µM, time 0, panel A8-2-0 [Time: 0]
[16] = molecular target: C3 fragments (iC3b, C3dg and C3d) of human complement component C3, deposited on cells or tissue (human) (UniProt P01024); assay: flow cytometry, rabbit RBCs + human serum + TT30 0.46 µM, time 0, panel A8-3-0 [Time: 0]
[17] = molecular target: C3 fragments (iC3b, C3dg and C3d) of human complement component C3, deposited on cells or tissue (human) (UniProt P01024); assay: flow cytometry, rabbit RBCs + human serum + TT30 1.4 µM, time 0, panel A5-1-0; isotype control for anti-C3d [Time: 0]
[18] = molecular target: TT30 (human); assay: flow cytometry, rabbit RBCs + human serum + TT30 0.46 µM, 24 hr, panel A8-24-2; isotype control for HB5 [Time: 24 hr]
TT30 (human), sequence (chain, as listed by the source limits assumed): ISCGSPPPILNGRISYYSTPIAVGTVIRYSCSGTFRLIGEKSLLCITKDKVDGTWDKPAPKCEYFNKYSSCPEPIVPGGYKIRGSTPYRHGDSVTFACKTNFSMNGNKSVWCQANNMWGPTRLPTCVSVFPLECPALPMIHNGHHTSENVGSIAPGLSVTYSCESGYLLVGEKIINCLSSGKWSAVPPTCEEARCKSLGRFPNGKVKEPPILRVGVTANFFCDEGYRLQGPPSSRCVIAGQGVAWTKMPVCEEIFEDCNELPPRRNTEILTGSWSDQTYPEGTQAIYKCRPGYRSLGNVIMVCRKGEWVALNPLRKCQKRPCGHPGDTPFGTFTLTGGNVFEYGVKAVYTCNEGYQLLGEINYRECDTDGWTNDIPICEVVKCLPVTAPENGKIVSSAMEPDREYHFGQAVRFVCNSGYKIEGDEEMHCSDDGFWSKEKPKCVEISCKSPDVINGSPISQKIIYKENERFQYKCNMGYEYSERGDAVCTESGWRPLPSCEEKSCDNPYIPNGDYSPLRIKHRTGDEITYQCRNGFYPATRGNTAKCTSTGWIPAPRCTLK

[19] = molecular target: TT30 (human); assay: flow cytometry, rabbit RBCs + human serum + TT30 0.46 µM, 2 hr, panel A8-2-2; isotype control for HB5 [Time: 2 hr]
[20] = molecular target: TT30 (human); assay: flow cytometry, rabbit RBCs + human serum + TT30 1.4 µM, time 0, panel A5-2-0; isotype control for HB5 [Time: 0]
[21] = molecular target: TT30 (human); assay: flow cytometry, rabbit RBCs + human serum + TT30 0.46 µM, 4 hr, panel A8-4-2; isotype control for HB5 [Time: 4 hr]

UniProt P01024, sequence (P01024 1002-1303 limits assumed): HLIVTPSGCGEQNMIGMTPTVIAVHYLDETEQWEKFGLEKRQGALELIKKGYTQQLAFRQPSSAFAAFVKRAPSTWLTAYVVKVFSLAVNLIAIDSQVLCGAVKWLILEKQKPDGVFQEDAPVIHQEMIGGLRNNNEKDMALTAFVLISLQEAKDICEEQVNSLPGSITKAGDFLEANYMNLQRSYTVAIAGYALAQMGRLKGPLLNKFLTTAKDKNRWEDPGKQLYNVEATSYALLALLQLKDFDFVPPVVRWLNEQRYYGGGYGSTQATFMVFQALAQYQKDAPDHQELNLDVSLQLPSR

- % of gated cells in Q4-UL (C3d-APC+, IgG2a-FITC-) [1]: 100%
- % of gated cells in Q4-UR (C3d-APC+, IgG2a-FITC+) [1]: 0%
- % of gated cells in Q4-UL (C3d-APC+, IgG2a-FITC-) [2]: 90.3%
- % of gated cells in Q4-UR (C3d-APC+, IgG2a-FITC+) [2]: 0%
- % of gated cells in Q4-UL (C3d-APC+, IgG2a-FITC-) [3]: 93.4%
- % of gated cells in Q4-UR (C3d-APC+, IgG2a-FITC+) [3]: 0%
- % of gated cells in Q4-UL (C3d-APC+, HB5-FITC-) [4]: 51.7%
- % of gated cells in Q4-UR (C3d-APC+, HB5-FITC+) [4]: 44.4%
- % of gated cells in Q4-UL (C3d-APC+, HB5-FITC-) [5]: 81%
- % of gated cells in Q4-UR (C3d-APC+, HB5-FITC+) [5]: 4%
- % of gated cells in Q4-UL (C3d-APC+, IgG2a-FITC-) [6]: 84.9%
- % of gated cells in Q4-UR (C3d-APC+, IgG2a-FITC+) [6]: 0%
- % of gated cells in Q4-UL (C3d-APC+, HB5-FITC-) [7]: 25.3%
- % of gated cells in Q4-UR (C3d-APC+, HB5-FITC+) [7]: 67.5%
- % of gated cells in Q4-UL (C3d-APC+, HB5-FITC-) [8]: 0%
- % of gated cells in Q4-UR (C3d-APC+, HB5-FITC+) [8]: 0%
- % of gated cells in Q4-UL (C3d-APC+, HB5-FITC-) [9]: 38.2%
- % of gated cells in Q4-UR (C3d-APC+, HB5-FITC+) [9]: 54.7%
- % of gated cells in Q4-UL (C3d-APC+, IgG2a-FITC-) [10]: 89.8%
- % of gated cells in Q4-UR (C3d-APC+, IgG2a-FITC+) [10]: 0.3%
- % of gated cells in Q4-UL (C3d-APC+, IgG2a-FITC-) [11]: 2.4%
- % of gated cells in Q4-UR (C3d-APC+, IgG2a-FITC+) [11]: 0%
- % of gated cells in Q4-UL (C3d-APC+, IgG2a-FITC-) [12]: 97.9%
- % of gated cells in Q4-UR (C3d-APC+, IgG2a-FITC+) [12]: 0.3%
- % of gated cells in Q4-UL (C3d-APC+, HB5-FITC-) [13]: 94.9%
- % of gated cells in Q4-UR (C3d-APC+, HB5-FITC+) [13]: 2.6%
- % of gated cells in Q4-UL (C3d-APC+, HB5-FITC-) [14]: 78.9%
- % of gated cells in Q4-UR (C3d-APC+, HB5-FITC+) [14]: 5.3%
- % of gated cells in Q4-UL (C3d-APC+, IgG2a-FITC-) [15]: 84.8%
- % of gated cells in Q4-UR (C3d-APC+, IgG2a-FITC+) [15]: 0%
- % of gated cells in Q4-UL (C3d-APC+, HB5-FITC-) [16]: 11.5%
- % of gated cells in Q4-UR (C3d-APC+, HB5-FITC+) [16]: 69.8%
Substance: C3d (A702)-APC (antibody)

- % of gated cells in Q4-UR (IgG1-APC+, HB5-FITC+) [17]: 0.4%
Substance: IgG1-APC (antibody)

- % of gated cells in Q4-LR (C3d-APC-, IgG2a-FITC+) [18]: 0.3%
- % of gated cells in Q4-UR (C3d-APC+, IgG2a-FITC+) [18]: 0.3%
- % of gated cells in Q4-LR (C3d-APC-, IgG2a-FITC+) [19]: 0.3%
- % of gated cells in Q4-UR (C3d-APC+, IgG2a-FITC+) [19]: 0.3%
- % of gated cells in Q4-LR (C3d-APC-, IgG2a-FITC+) [20]: 0.5%
- % of gated cells in Q4-LR (C3d-APC-, IgG2a-FITC+) [21]: 0.3%
Substance: IgG2a-FITC (antibody)
